In publication PMC10763564, “BrainBike peptidomimetic enables efficient transport of proteins across brain endothelium†” (RSC Chemical Biology, 2023):
Starred links: 1 amine or outer side, 2 acyl side, 3 side chain; linkers in the order of their positions; H or OH if unused. Positions of bridges follow the written chain, without caps; N, C: chain ends. No end group written: not given here. TBMB = c1c(C[*:1])cc(C[*:3])cc1C[*:2]

Assays:
[1] = target: T1, Transferrin Receptor 1 on HeLa cells (TfR1+) (human (endogenous in HeLa), UniProt P02786 1-760); experiment: flow cytometry on cells; sCy5-labelled peptides on HeLa cells (TfR1+, endogenous receptor); conditions: one partner purified
T1 construct: Transferrin Receptor 1 (TfR1), endogenous on HeLa cells; source: endogenous, on HeLa cells

[2] = target: T2, TfR1 fused to a green fluorescent protein, on transfected HeLa cells (TfR1+++) (UniProt P02786 1-760); experiment: flow cytometry on cells; sCy5-labelled peptide on HeLa cells transfected with GFP-TfR1 (TfR1+++), cells with higher levels of the receptor analysed; conditions: one partner purified
T2 construct: Transferrin Receptor 1 (TfR1) encoded by a plasmid as a fusion with GFP; The transfected HeLa cells carry the endogenous TfR1 as well; also called GFP-TfR1; source: HeLa, transfected, on cells
T2 sequence (P02786 whole entry, the tested form may be a part): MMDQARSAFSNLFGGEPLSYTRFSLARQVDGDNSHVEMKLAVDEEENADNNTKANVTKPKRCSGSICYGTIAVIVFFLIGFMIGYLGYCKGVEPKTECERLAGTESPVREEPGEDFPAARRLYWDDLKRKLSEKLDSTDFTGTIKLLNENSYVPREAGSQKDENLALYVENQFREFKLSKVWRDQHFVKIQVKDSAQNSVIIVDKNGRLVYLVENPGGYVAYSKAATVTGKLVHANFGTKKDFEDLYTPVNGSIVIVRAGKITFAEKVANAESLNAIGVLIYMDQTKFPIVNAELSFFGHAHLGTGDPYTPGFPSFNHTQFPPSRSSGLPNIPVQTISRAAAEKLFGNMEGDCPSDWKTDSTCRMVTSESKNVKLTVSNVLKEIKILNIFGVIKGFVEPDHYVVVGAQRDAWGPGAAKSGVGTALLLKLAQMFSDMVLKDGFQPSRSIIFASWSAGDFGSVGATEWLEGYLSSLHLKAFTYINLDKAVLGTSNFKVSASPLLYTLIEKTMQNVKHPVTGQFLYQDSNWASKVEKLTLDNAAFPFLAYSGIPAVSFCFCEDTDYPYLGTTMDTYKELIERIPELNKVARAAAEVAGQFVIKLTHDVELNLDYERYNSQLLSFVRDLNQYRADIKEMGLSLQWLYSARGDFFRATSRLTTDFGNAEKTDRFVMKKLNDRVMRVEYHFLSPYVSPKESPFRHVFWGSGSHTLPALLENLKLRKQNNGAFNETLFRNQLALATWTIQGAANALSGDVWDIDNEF

T1 sequence (P02786 whole entry): as the sequence (P02786 whole entry, the tested form may be a part) above

B1: BrainBike-4 labelled with sulfo-Cyanine5 (peptide)
chain: {sulfo‑Cyanine5}-GSGCVHWDCRQWC
modifications: linker 4-9-13 via TBMB
With B1 the Kd [1] was roughly 40 nM, the “fold cell association against the parent peptide Y1” value [1] was 7 fold and the “fold binding against the same cells without overexpressing the receptor” value [2] was roughly 40 fold.
